Columns and labels:
[1] = molecular target: T1, rHuman ErbB2/Fc Chimera, CF (R&D Systems Cat#1129-ER) (human, UniProt P04626 23-652); assay: ECL Multispot (MSD), antigen spotted; Fab 50 (µM); blank 386
T1 construct: Bought recombinant protein; Fc part of the bought chimera not given

[2] = molecular target: T2, rHuman EGF R/Fc Chimera, CF (R&D Systems Cat#344-ER) (human, UniProt P00533 25-645); assay: ECL multispot (MSD) assay, spotted antigen; Fab 200.00 (head prints uM)
T2 construct: Bought recombinant protein; Fc part of the bought chimera not given

[3] = molecular target: T3, rHuman CD44/Fc Chimera, CF (R&D Systems Cat#3660-CD) (human, UniProt P16070 21-220); assay: as above
T3 construct: Bought recombinant protein; Fc part of the bought chimera not given

[4] = molecular target: T4, rHuman Notch-1/Fc Chimera, CF (R&D Systems Cat#3647-TK) (human, UniProt P46531 19-526); assay: as above
T4 construct: Bought recombinant protein; Fc part of the bought chimera not given

[5] = molecular target: T5, rHuman HGF R/c-MET/Fc Chimera, CF (R&D Systems Cat#358-MT/CF) (human, UniProt P08581 25-932); assay: as above
T5 construct: Bought recombinant protein; also called HGF R/Fc; Fc part of the bought chimera not given

[6] = molecular target: T6, Recombinant Human DLL4 (R&D Systems Cat#1506-D4/CF) (human, UniProt Q9NR61 27-524); assay: as above
T6 construct: Bought recombinant protein; also called delta-like protein 4

[7] = molecular target: T7, rHuman IGF-1 sR, CF (R&D Systems Cat#391-GR) (human, UniProt P08069 31-932); assay: as above
T7 construct: Bought soluble receptor; The column head prints only 'IGF-1'; also called insulin-like growth factor-1 soluble receptor

[8] = molecular target: T8, rHuman IGF-1 sR, CF (R&D Systems Cat#391-GR) (human, UniProt P08069 31-932); assay: Multispot ECL (MSD), antigen spotted on plate, Fab 500 nM; blank spot 680
T8 construct: Bought recombinant soluble receptor; also called insulin-like growth factor-1 soluble receptor

[9] = molecular target: T9, rHuman Notch-1/Fc Chimera, CF (R&D Systems Cat#3647-TK) (human, UniProt P46531 19-526); assay: as above
T9 construct: Bought recombinant protein; Fc part of the bought chimera not given

[10] = molecular target: T10, rHuman Erythropoietin R/Fc Chimera, CF (R&D Systems Cat#963-ER) (human, UniProt P19235 25-250); assay: as above
T10 construct: Bought recombinant protein; also called EPO R/Fc; Epo R; Fc part of the bought chimera not given
T10 sequence (looked up): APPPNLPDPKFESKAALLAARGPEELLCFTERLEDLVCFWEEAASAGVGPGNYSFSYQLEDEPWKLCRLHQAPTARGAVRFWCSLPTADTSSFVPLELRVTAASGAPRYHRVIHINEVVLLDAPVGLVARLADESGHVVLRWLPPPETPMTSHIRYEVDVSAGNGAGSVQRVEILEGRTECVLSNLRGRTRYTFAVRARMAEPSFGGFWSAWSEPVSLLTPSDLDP

[11] = molecular target: T11, Recombinant Human DLL4 (R&D Systems Cat#1506-D4/CF) (human, UniProt Q9NR61 27-524); assay: as above
T11 construct: Bought recombinant protein; also called rHuman DLL4; delta-like protein 4

[12] = molecular target: T12, rHuman HGF R/c-MET/Fc Chimera, CF (R&D Systems Cat#358-MT/CF) (human, UniProt P08581 25-932); assay: MSD Multispot ECL, antigen spotted on plate, Fab 130 nM; blank spot 1153
T12 construct: Bought reagent; also called HGF R/Fc; hepatocyte growth factor receptor; Fc part of the bought chimera not given

[13] = molecular target: T13, rHuman Notch-1/Fc Chimera, CF (R&D Systems Cat#3647-TK) (human, UniProt P46531 19-526); assay: as above
T13 construct: Bought reagent; Fc part of the bought chimera not given

[14] = molecular target: T14, rHuman Erythropoietin R/Fc Chimera, CF (R&D Systems Cat#963-ER) (human, UniProt P19235 25-250); assay: as above
T14 construct: Bought reagent; also called EPO R/Fc; EPO R; Fc part of the bought chimera not given
T14 sequence (looked up): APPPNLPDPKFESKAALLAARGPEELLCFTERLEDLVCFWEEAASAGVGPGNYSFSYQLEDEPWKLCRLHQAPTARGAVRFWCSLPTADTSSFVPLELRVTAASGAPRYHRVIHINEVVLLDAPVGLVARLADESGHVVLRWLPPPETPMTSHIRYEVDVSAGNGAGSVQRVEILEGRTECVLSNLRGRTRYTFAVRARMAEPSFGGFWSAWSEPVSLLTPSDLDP

[15] = molecular target: T15, rHuman EGF R/Fc Chimera, CF (R&D Systems Cat#344-ER) (human, UniProt P00533 25-645); assay: as above
T15 construct: Bought reagent; also called epidermal growth factor receptor; Fc part of the bought chimera not given

[16] = molecular target: T16, rHuman ErbB2/Fc Chimera, CF (R&D Systems Cat#1129-ER) (human, UniProt P04626 23-652); assay: as above
T16 construct: Bought reagent; also called human epidermal growth factor 2 receptor; Fc part of the bought chimera not given

[17] = molecular target: T17, Recombinant Human DLL4 (R&D Systems Cat#1506-D4/CF) (human, UniProt Q9NR61 27-529); assay: as above
T17 construct: Bought recombinant protein; also called rHuman DLL4; delta-like protein 4

[18] = molecular target: T18, rHuman IGF-1 sR, (IGF-1 sR), CF (R&D Systems Cat#391-GR) (human, UniProt P08069 31-932); assay: as above
T18 construct: Bought soluble receptor; also called insulin-like growth factor-1 soluble receptor

[19] = molecular target: T19, rHuman CD44/Fc Chimera, CF (R&D Systems Cat#3660-CD) (human, UniProt P16070 21-220); assay: as above
T19 construct: Bought reagent; Fc part of the bought chimera not given

B1: Fab VH1-46_IGHD6-6*01_IGHJ1*01 S102A/S103P/S104F (APF) & L6_IGKJ1*01 (Fab, V domains shown)
VH: QVQLVQSGAEVKKPGASVKVSCKASGYTFTSYYMHWVRQAPGQGLEWMGIINPSGGSTSYAQKFQGRVTMTRDTSTSTVYMELSSLRSEDTAVYYCAREEYAPFSAEYFQHWGQGTLVTVSS
VL: not shown
notes: Tested as a Fab made in E. coli: VH cloned in Plasmid A (CH1 constant region, His6 and Flag tags), VL in Plasmid C (kappa constant region); also called H:APF & L:wt; APF triple mutant
ECL signal [1]: 672

B2: Fab VH5-51_IGHD5-18*01>3_IGHJ4*01 G100K/G104T & V3-4_IGLJ1*01 (Fab, V domains shown)
VH: EVQLVQSGAEVKKPGESLKISCKGSGYSFTSYWIGWVRQMPGKGLEWMGIIYPGDSDTRYSPSFQGQVTISADKSISTAYLQWSSLKASDTAMYYCARRKYSYTYDYFDYWGQGTLVTVSS
VL: QTVVTQEPSFSVSPGGTVTLTCGLSSGSVSTSYYPSWYQQTPGQAPRTLIYSTNTRSSGVPDRFSGSILGNKAALTITGAQADDESDYYCVLYMGSGISYVFGTGTKVTVL
notes: Tested as a Fab; The constant parts are the same as for the parent Fab (CH1 with His6/Flag tags, lambda CL); also called KT double mutant; H:KT
ECL signal/noise ratio [2]: 1.6 | ECL signal/noise ratio [3]: 1.4 | ECL signal/noise ratio [4]: 1.7 | ECL signal/noise ratio [5]: 1.7 | ECL signal/noise ratio [6]: 76.9 | ECL signal/noise ratio [7]: 1.5

B3: Fab VH1-46_IGHD6-13*01_IGHJ4*01 & B3_IGKJ1*01 (Fab, V domains shown)
VH: QVQLVQSGAEVKKPGASVKVSCKASGYTFTSYYMHWVRQAPGQGLEWMGIINPSGGSTSYAQKFQGRVTMTRDTSTSTVYMELSSLRSEDTAVYYCAREGYSSSWYDYFDYWGQGTLVTVSS
VL: not shown
notes: Germline Fab made in E. coli; VH was cloned into Plasmid A (CH1, His6 and Flag tags) and the kappa VL into Plasmid C (kappa CL)
ECL signal [8]: 1330 | ECL signal [9]: 1980 | ECL signal [10]: 10300 | ECL signal [11]: 2320

B4: Fab VH1-8_IGHD2-2*01_IGHJ6*01 & L12_IGKJ1*01 (Fab, V domains shown)
VH: QVQLVQSGAEVKKPGASVKVSCKASGYTFTSYDINWVRQATGQGLEWMGWMNPNSGNTGYAQKFQGRVTMTRNTSISTAYMELSSLRSEDTAVYYCARGGYCSSTSCYADYYYYYGMDVWGQGTTVTVSS
VL: not shown
ECL signal [12]: 1880 | ECL signal [13]: 1760 | ECL signal [14]: 2150 | ECL signal [15]: 1750 | ECL signal [16]: 1530 | ECL signal [17]: 7740 | ECL signal [18]: 1970 | ECL signal [19]: 1750
